Results reported in the nanobody polyreactivity screen of Harvey et al. (2022).

test: yeast display, Sf9 membrane polyspecificity reagent, FACS + sequencing; frameworks hold sequencing errors
Procedure, shortened: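 Nanobodies came from a synthetic yeast display library in Saccharomyces cerevisiae BJ5465, induced with galactose for 36–48 hours and stained for 1 hour at 4 °C with 10% biotinylated, detergent-solubilized Sf9 membrane reagent. Cells were enriched on streptavidin microbeads and then FACS-sorted, with low and high (top ~1%) gates set on anti-HA fluorescence for expression and streptavidin fluorescence for reagent binding. Each polyreactivity label reflects the gate a clone came from. Genes were amplified by colony PCR, sequenced by MiSeq 2 × 250 and filtered by CDR length.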

Sequence	polyreactivity (PSR sort gate)
QVQLVESGGGLVQAGVSLRLSCAASGSIFGHYAMGWYRQAPGKERELVAAISWSGTSTYYADSVKGRFTISRDNAKNTVYLQMNSLKPEDTAVYYCNVVYRVVSPSGGGYWGQGTQVTVSS	high polyreactivity
QVQLVESGGGLVQAGVSLRLSCAASGSIFRIYGMGWYRQAPGKEREFVAAITHSGGSTYYADSVKGRFTISRDNAKNTVYLQMNSLKPEDTAVYYCAAEDYNYWSYDYWGQGTQVTVSS	low polyreactivity
QVQLVESGGGLVQAGVSLRLSCAASGSIFYYYAMGWYRPAPGKERELVAAITRSGGSTYYADSVKGRFTISRDNAKNTVYLQMNSLKPEDTAVYYCAKDAHAYRDLDYWGQGTQVTVSS	low polyreactivity
QVQLVESGGGLVQAGVSLRLSCAASGSTFAFYDMGWYRQAPGKERELVAGISSSGSTYYADSVKGPFTISRDNAKNTVYLQMNSLKPEDTAVYYCAADAPYLVPYGWWDYDYDYWGQGTQVTVSS	low polyreactivity
QVQLVESGGGLVQAGVSLRLSCAASGSTFPVNTMGWYRQAPGKERELVAAISWSGGRTYYADSVKGRFTISRDNAKNNVYLQMNILKPEDTAVYYCAADIGSYYYYTYYYWGQGSQVTVSS	high polyreactivity
QVQLVESGGGLVQAGVSLRLSCAASGSTFYRKTMGWYIQAPGKERELVAAISSSGGSTYYADSVNGRFTISRDNAKNTVYLQMNSLKPEDTAVYYCADTYSPFDFYYWRQGTQVTVSS	low polyreactivity
QVQLVESGGGLVQAGVSLRLSCAASGSTVGYNAMGWYRQAPGKERELVAAISGNGGSTYADSVKGRFTISRDNAKNTVYLQMNSLKPEDTAVYFCAAVQYGYGLASDSIFDYWGQGTQVTVSS	high polyreactivity
QVQLVESGGGLVQAGVSLRLSCAASGTFFGYAMGWYRQAPGKERELVASITSGDSTNYADSVKGRFTISRDNAKKTVYLQMNSLKPEDTAVYYCNADRFADYDYWGQGTQVTVSS	low polyreactivity
QVQLVESGGGLVQAGVSLRLSCAASGYIFRFNAMGWYRQAPGKERELVAVITSGARTYYADSVKGRFTISRDNAKNTVYLQMNSLKPEDTAVYYCNAGARRYLYDYWGQGTQVTVSS	low polyreactivity
QVQLVESGGGLVQAGVSLRLSCASSGFTFHYYAMGWYRQAPGKERELVAAISWSSGRTYYADSVKGRFTISRDNAKNTVYLQMNSLKPEDTAVYYCAASSYNRGDYWGQGTQVTVSS	low polyreactivity
QVQLVESGGGLVQAGVSLRLSCDASGSILRENAMGWYRQAPGKERELVAVITRGGNTYYADSVKGRFTISRDNAKNTVYLQMNSLKPEDTAVYYCAAKRRERYGLTYGYWGQGTQVTVSS	high polyreactivity
QVQLVESGGGLVQARGILRLSCAASGNIFGRYAMGWSRQAPGKERELVAAITRSCGRTYYADSVKGRFTISRHHAKNTVYLQRNSLKPEDTAGYYCAAVGGRDVYPVVDRDYWGQGTQLTVSS	low polyreactivity
QVQLVESGGGLVQARGSLRLICAASVQIFRVYAMGWSRQAPGKEREFVAAMTYDGGNTYYADSVKGRFTISRDNAKNTVYLQMLSLKPEDTAVYYCAKDYGEWGQGTQVTVSS	low polyreactivity
QVQLVESGGGLVQARGSLRLSCAASGFIIRWNTKGWYRQAPGKVRELVAAISSRGGSTYYADSVKGRFKISRDNAKNTVYLQMNSRKPEDTAVYYCNAVRGDEYWGLGTQVTVSS	high polyreactivity
QVQLVESGGGLVQARGSLRLSCAASGFIYRYNVMGWYRQAPGKERELVAAISTSGGRTYYADSVKGRFTISRDNAKITVYLQMNSLKPEDTAVYYCIAVISEVHKVRDGFYWGQGSQVTVSS	high polyreactivity
QVQLVESGGGLVQARGSLRLSCAASGFNISNYAMGWYREAPGKESELVAAIRRSGGSTYYADSVKGRFTISRDNAKNTVYLQMNSRKPEDTAVYYCAAYPKRGSRYDYWGLGTQVTVSS	high polyreactivity
